Results reported in article PMC9352680, “A comprehensive thermodynamic model for RNA binding by the Saccharomyces cerevisiae Pumilio protein PUF4”.

T1: PUF4 RNA-binding domain (Saccharomyces cerevisiae, UniProt P25339 537-888)
T1 sequence: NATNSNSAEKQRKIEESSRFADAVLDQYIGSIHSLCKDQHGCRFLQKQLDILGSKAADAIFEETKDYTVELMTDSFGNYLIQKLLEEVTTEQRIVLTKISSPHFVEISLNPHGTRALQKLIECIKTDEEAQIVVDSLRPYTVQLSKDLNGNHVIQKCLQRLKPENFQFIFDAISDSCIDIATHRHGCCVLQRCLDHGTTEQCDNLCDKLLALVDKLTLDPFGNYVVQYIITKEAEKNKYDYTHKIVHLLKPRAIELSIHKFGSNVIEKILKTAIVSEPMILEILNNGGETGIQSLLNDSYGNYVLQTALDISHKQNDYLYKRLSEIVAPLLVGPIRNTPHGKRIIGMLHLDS

B1: Ic_S1_P4E.1_K4.1_C4.1_H4.1_A4.1_[T5A]_[A6C]_F4.1_[T8A]_[A9C]_T4.1 (ssRNA)
RNA: UCUCUUUGUAACUACUCUCUU
B2: Ic_S1_P4E.1_K4.1_C4.1_H4.1_A4.1_[T5A]_[A6C]_[T7G]_F4.1_[A9G]_T4.1 (ssRNA)
RNA: UCUCUUUGUAACGUGUCUCUU
B3: Ic_S1_P4E.1_K4.1_C4.1_H4.1_A4.1_[T5A]_[A6C]_[T7A]_F4.1_[T8G]_[A9C]_T4.1 (ssRNA)
RNA: UCUCUUUGUAACAGCUCUCUU
B4: Ic_S1_P4E.1_K4.1_C4.1_H4.1_A4.1_[T5A]_[A6C]_[T7G]_F4.1_[T8A]_[A9T]_T4.1 (ssRNA)
RNA: UCUCUUUGUAACGAUUCUCUU
B5: Ic_S1_P4E.1_K4.1_C4.1_H4.1_A4.1_[T5A]_[A6C]_[T7A]_F4.1_[T8A]_T4.1 (ssRNA)
RNA: UCUCUUUGUAACAAAUCUCUU
B6: Ic_S1_P4E.1_K4.1_C4.1_H4.1_A4.1_[T5A]_[A6C]_[T7G]_F4.1_[A9C]_T4.1 (ssRNA)
RNA: UCUCUUUGUAACGUCUCUCUU
B7: Ic_S1_P4E.1_K4.1_C4.1_H4.1_A4.1_[T5A]_[A6C]_F4.1_[T8G]_[A9T]_T4.1 (ssRNA)
RNA: UCUCUUUGUAACUGUUCUCUU
B8: Ib_S1_P3E.1_K3.1_C3.1_H3.1_[A4G]_A3.1_F3.1_[A8G]_T3.1 (ssRNA)
RNA: UCUCUUUGUGUAUGUCUCUU
B9: Ib_S1_P3E.1_K3.1_C3.1_H3.1_[T3C]_A3.1_F3.1_[A8G]_T3.1 (ssRNA)
RNA: UCUCUUUGCAUAUGUCUCUU
B10: Ic_S1_P4E.1_K4.1_C4.1_H4.1_A4.1_[T5A]_[A6C]_[T7C]_F4.1_[T8C]_[A9C]_T4.1 (ssRNA)
RNA: UCUCUUUGUAACCCCUCUCUU
B11: Ic_S1_P4E.1_K4.1_C4.1_H4.1_A4.1_[T5A]_[A6C]_[T7G]_F4.1_T4.1 (ssRNA)
RNA: UCUCUUUGUAACGUAUCUCUU
B12: Ic_S1_P4E.1_K4.1_C4.1_H4.1_A4.1_[T5A]_[A6C]_[T7C]_F4.1_[T8G]_T4.1 (ssRNA)
RNA: UCUCUUUGUAACCGAUCUCUU
B13: Ic_S1_P4E.1_K4.1_C4.1_H4.1_A4.1_[T5A]_[A6G]_[T7C]_F4.1_[T8A]_[A9C]_T4.1 (ssRNA)
RNA: UCUCUUUGUAAGCACUCUCUU
B14: Ic_S1_P4E.1_K4.1_C4.1_H4.1_A4.1_[T5A]_[A6C]_F4.1_[T8G]_[A9C]_T4.1 (ssRNA)
RNA: UCUCUUUGUAACUGCUCUCUU
B15: Ic_S1_P4E.1_K4.1_C4.1_H4.1_A4.1_[T5A]_[A6C]_[T7C]_F4.1_[A9G]_T4.1 (ssRNA)
RNA: UCUCUUUGUAACCUGUCUCUU
B16: Ic_S1_P4E.1_K4.1_C4.1_H4.1_A4.1_[T5A]_[A6C]_[T7A]_F4.1_[A9C]_T4.1 (ssRNA)
RNA: UCUCUUUGUAACAUCUCUCUU
B17: Ic_S1_P4E.1_K4.1_C4.1_H4.1_A4.1_[T5A]_[A6G]_[T7C]_F4.1_[T8C]_T4.1 (ssRNA)
RNA: UCUCUUUGUAAGCCAUCUCUU
B18: Ic_S1_P4E.1_K4.1_C4.1_H4.1_A4.1_[T5A]_[A6C]_[T7A]_F4.1_[A9T]_T4.1 (ssRNA)
RNA: UCUCUUUGUAACAUUUCUCUU
B19: Ic_S1_P4E.1_K4.1_C4.1_H4.1_A4.1_[T5C]_F4.1_[T8A]_[A9G]_T4.1 (ssRNA)
RNA: UCUCUUUGUACAUAGUCUCUU
B20: Ic_S1_P4E.1_K4.1_C4.1_H4.1_A4.1_[T5A]_[A6G]_[T7C]_F4.1_[A9C]_T4.1 (ssRNA)
RNA: UCUCUUUGUAAGCUCUCUCUU
B21: Ic_S1_P4E.1_K4.1_C4.1_H4.1_A4.1_[T5A]_[A6C]_F4.1_[T8A]_T4.1 (ssRNA)
RNA: UCUCUUUGUAACUAAUCUCUU
B22: Ic_S1_P4E.1_K4.1_C4.1_H4.1_A4.1_[T5A]_[A6C]_F4.1_[T8C]_[A9G]_T4.1 (ssRNA)
RNA: UCUCUUUGUAACUCGUCUCUU
B23: Ic_S1_P4E.1_K4.1_C4.1_H4.1_A4.1_[T5A]_[A6C]_[T7C]_F4.1_[A9C]_T4.1 (ssRNA)
RNA: UCUCUUUGUAACCUCUCUCUU
B24: Ic_S1_P4E.1_K4.1_C4.1_H4.1_A4.1_[T5A]_[A6C]_[T7A]_F4.1_[T8C]_T4.1 (ssRNA)
RNA: UCUCUUUGUAACACAUCUCUU
B25: Ic_S1_P4E.1_K4.1_C4.1_H4.1_A4.1_[T5A]_[A6C]_[T7C]_F4.1_[T8C]_[A9T]_T4.1 (ssRNA)
RNA: UCUCUUUGUAACCCUUCUCUU
B26: Ic_S1_P4E.1_K4.1_C4.1_H4.1_A4.1_[T5A]_[A6C]_F4.1_[T8G]_[A9G]_T4.1 (ssRNA)
RNA: UCUCUUUGUAACUGGUCUCUU
B27: Ic_S1_P4E.1_K4.1_C4.1_H4.1_A4.1_[T5A]_[A6C]_F4.1_[T8A]_[A9T]_T4.1 (ssRNA)
RNA: UCUCUUUGUAACUAUUCUCUU
B28: Ic_S1_P4E.1_K4.1_C4.1_H4.1_A4.1_[T5A]_[A6C]_[T7G]_F4.1_[A9T]_T4.1 (ssRNA)
RNA: UCUCUUUGUAACGUUUCUCUU
B29: Ic_S1_P4E.1_K4.1_C4.1_H4.1_A4.1_[T5A]_[A6C]_[T7G]_F4.1_[T8C]_[A9C]_T4.1 (ssRNA)
RNA: UCUCUUUGUAACGCCUCUCUU
B30: Ic_S1_P4E.1_K4.1_C4.1_H4.1_A4.1_[T5A]_[A6C]_F4.1_[T8A]_[A9G]_T4.1 (ssRNA)
RNA: UCUCUUUGUAACUAGUCUCUU
B31: Ic_S1_P4E.1_K4.1_C4.1_H4.1_A4.1_[T5A]_[A6C]_F4.1_[A9C]_T4.1 (ssRNA)
RNA: UCUCUUUGUAACUUCUCUCUU
B32: Ic_S1_P4E.1_K4.1_C4.1_H4.1_A4.1_[T5C]_F4.1_[T8C]_[A9T]_T4.1 (ssRNA)
RNA: UCUCUUUGUACAUCUUCUCUU
B33: Ic_S1_P4E.1_K4.1_C4.1_H4.1_A4.1_[T5A]_[A6C]_[T7A]_F4.1_[A9G]_T4.1 (ssRNA)
RNA: UCUCUUUGUAACAUGUCUCUU
B34: Ic_S1_P4E.1_K4.1_C4.1_H4.1_A4.1_[T5A]_[A6C]_F4.1_[T8C]_T4.1 (ssRNA)
RNA: UCUCUUUGUAACUCAUCUCUU
B35: Ic_S1_P4E.1_K4.1_C4.1_H4.1_A4.1_[T5A]_[A6C]_[T7G]_F4.1_[T8C]_[A9G]_T4.1 (ssRNA)
RNA: UCUCUUUGUAACGCGUCUCUU
B36: Ic_S1_P4E.1_K4.1_C4.1_H4.1_A4.1_[T5A]_[A6C]_[T7A]_F4.1_[T8G]_[A9T]_T4.1 (ssRNA)
RNA: UCUCUUUGUAACAGUUCUCUU
B37: Ic_S1_P4E.1_K4.1_C4.1_H4.1_A4.1_[T5A]_[A6C]_[T7A]_F4.1_[T8A]_[A9G]_T4.1 (ssRNA)
RNA: UCUCUUUGUAACAAGUCUCUU
B38: Ic_S1_P4E.1_K4.1_C4.1_H4.1_A4.1_[T5A]_[A6C]_[T7A]_F4.1_[T8A]_[A9T]_T4.1 (ssRNA)
RNA: UCUCUUUGUAACAAUUCUCUU
B39: Ic_S1_P4E.1_K4.1_C4.1_H4.1_A4.1_[T5A]_[A6C]_[T7G]_F4.1_[T8C]_[A9T]_T4.1 (ssRNA)
RNA: UCUCUUUGUAACGCUUCUCUU
B40: Ic_S1_P4E.1_K4.1_C4.1_H4.1_A4.1_[T5A]_[A6C]_[T7A]_F4.1_[T8A]_[A9C]_T4.1 (ssRNA)
RNA: UCUCUUUGUAACAACUCUCUU
B41: Ic_S1_P4E.1_K4.1_C4.1_H4.1_A4.1_[T5A]_[A6C]_[T7A]_F4.1_T4.1 (ssRNA)
RNA: UCUCUUUGUAACAUAUCUCUU
B42: Ic_S1_P4E.1_K4.1_C4.1_H4.1_A4.1_[T5A]_[A6C]_[T7C]_F4.1_[T8A]_[A9T]_T4.1 (ssRNA)
RNA: UCUCUUUGUAACCAUUCUCUU
B43: Ic_S1_P4E.1_K4.1_C4.1_H4.1_A4.1_[T5A]_[A6C]_[T7C]_F4.1_[T8A]_T4.1 (ssRNA)
RNA: UCUCUUUGUAACCAAUCUCUU
B44: Ic_S1_P4E.1_K4.1_C4.1_H4.1_A4.1_[T5A]_[A6C]_F4.1_[A9G]_T4.1 (ssRNA)
RNA: UCUCUUUGUAACUUGUCUCUU
B45: Ic_S1_P4E.1_K4.1_C4.1_H4.1_A4.1_[T5A]_[A6C]_F4.1_[T8G]_T4.1 (ssRNA)
RNA: UCUCUUUGUAACUGAUCUCUU
B46: Ic_S1_P4E.1_K4.1_C4.1_H4.1_A4.1_[T5A]_[A6G]_[T7C]_F4.1_[T8C]_[A9C]_T4.1 (ssRNA)
RNA: UCUCUUUGUAAGCCCUCUCUU
B47: Ib_S1_P3E.1_K3.1_C3.1_H3.1_[G2A]_A3.1_F3.1_[A8T]_T3.1 (ssRNA)
RNA: UCUCUUUAUAUAUUUCUCUU
B48: Ic_S1_P4E.1_K4.1_C4.1_H4.1_A4.1_[T5A]_[A6G]_[T7C]_F4.1_[A9G]_T4.1 (ssRNA)
RNA: UCUCUUUGUAAGCUGUCUCUU
B49: Ib_S1_P3E.1_K3.1_C3.1_H3.1_[T3C]_A3.1_F3.1_[A8C]_T3.1 (ssRNA)
RNA: UCUCUUUGCAUAUCUCUCUU
B50: Ic_S1_P4E.1_K4.1_C4.1_H4.1_A4.1_[T5A]_[A6C]_[T7C]_F4.1_[T8A]_[A9G]_T4.1 (ssRNA)
RNA: UCUCUUUGUAACCAGUCUCUU
B51: Ic_S1_P4E.1_K4.1_C4.1_H4.1_A4.1_[T5A]_[A6G]_[T7C]_F4.1_T4.1 (ssRNA)
RNA: UCUCUUUGUAAGCUAUCUCUU

Each binder was assayed against T1, PUF4 RNA-binding domain (assay: Mg; RNA-MaP; 20 mM Na-HEPES pH 7.4, 30 mM KOAc, 0.75 mM MgCl2, 0.1% Tween-20, 5% glycerol, 0.1 mg/mL BSA, 2 mM DTT; 25 C; 0.0125-409.6 nM protein). Conditions: tags: N-His6-TEV cleaved; C-SNAP kept, Cy3B-labelled; label: tethered on chip by stalled RNA polymerase.

Binder	Kd [µM]
B1	0.422
B2	0.758
B3	1.15
B4	0.884
B5	0.111
B6	0.789
B7	0.36
B8	0.494
B9	> 2.3
B10	1.7
B11	0.0173
B12	> 2.3
B13	1.88
B14	0.704
B15	0.061
B16	0.0245
B17	0.515
B18	0.0139
B19	0.0055
B20	1.84
B21	0.173
B22	0.726
B23	0.09
B24	0.209
B25	0.727
B26	0.937

Binder	Kd [µM]
B27	0.0931
B28	0.314
B29	2
B30	0.104
B31	0.113
B32	0.0211
B33	0.012
B34	0.374
B35	> 2.3
B36	0.362
B37	1.67
B38	0.102
B39	0.581
B40	0.58
B41	0.00155
B42	0.548
B43	0.863
B44	0.0625
B45	0.674
B46	2.29
B47	0.696
B48	0.544
B49	> 2.3
B50	> 2.3
B51	0.0265
